Tests used:
[1] = substrate: CN(C)c1ccc2nc3ccc(=[N+](C)C)cc-3sc2c1; experiment: purified protein, by the assay type; details: other: electron acceptor + 225 μM cellobiose, 0.1M sodium phosphate buffer, pH 7.5, 40° C.
[2] = substrate: OC[C@H]1O[C@@H](O[C@H]2[C@H](O)[C@@H](O)[C@H](O[C@H]3[C@H](O)[C@@H](O)[C@H](O[C@H]4[C@H](O)[C@@H](O)C(O)O[C@@H]4CO)O[C@@H]3CO)O[C@@H]2CO)[C@H](O)[C@@H](O)[C@@H]1O; experiment: purified protein, by the assay type; details: other: sugar + 90 μM DCPIP, 0.1M sodium phosphate buffer, pH 7.5, 40° C.
[3] = substrate: OC[C@H]1O[C@@H](O[C@H]2[C@H](O)[C@@H](O)C(O)O[C@@H]2CO)[C@H](O)[C@@H](O)[C@H]1O; experiment: purified protein, by the assay type; details: other: sugar + 90 μM DCPIP, 0.1M sodium phosphate buffer, pH 7.5, 40° C.
Description: (§2) The measurements were performed in 0.1M sodium phosphate buffer at pH 7.5 at 40° C. 450 μl of a mixture of 100 μM of 2,6-Dichlorophenol-indophenol (DCPIP, Merck), 250 μM of cellobiose (Sigma) were mixed with 50 μl enzyme. Units of activity equals μmol cellobiose oxidized (DCPIP reduced) per min.
(§3) All measurements were performed in 0.1M sodium phosphate buffer, pH 7.5, at 40° C. […] The reactions were monitored for 400 s as changes in absorbance at the appropirate wavelength (see above). […] The catalytic constants (kcat) were expressed as mol of oxidized cellobiose/s/mol of enzyme. […] The kinetic constants were determined using Lineweaver-Burke plots and were the result of dual determinations.

[4] = substrate: CC(C)(C)C1=CC(=O)C(=O)C(C(C)(C)C)=C1; experiment: purified protein, by the assay type; details: other: electron acceptor + 225 μM cellobiose, 0.1M sodium phosphate buffer, pH 7.5, 40° C.
[5] = substrate: O=C1C(Cl)=CC(=Nc2ccc(O)cc2)C=C1Cl; experiment: purified protein, by the assay type; details: other: electron acceptor + 225 μM cellobiose, 0.1M sodium phosphate buffer, pH 7.5, 40° C.
Description: as §2, §3

[6] = substrate: OC[C@H]1O[C@H](O[C@H]2[C@H](O)[C@@H](O)[C@H](O)O[C@@H]2CO)[C@H](O)[C@@H](O)[C@@H]1O; experiment: purified protein, by the assay type; details: other: sugar + 90 μM DCPIP, 0.1M sodium phosphate buffer, pH 7.5, 40° C.
Description: as §2, §3

[7] = substrate: OC[C@H]1O[C@@H](O[C@H]2[C@H](O)[C@@H](O)C(O)O[C@@H]2CO)[C@H](O)[C@@H](O)[C@@H]1O; experiment: purified protein, by the assay type; details: other: sugar + 90 μM DCPIP, 0.1M sodium phosphate buffer, pH 7.5, 40° C.
Description: as §2, §3

[8] = substrate: OC[C@H]1O[C@@H](O[C@H]2[C@H](O)[C@@H](O)[C@H](O[C@H]3[C@H](O)[C@@H](O)C(O)O[C@@H]3CO)O[C@@H]2CO)[C@H](O)[C@@H](O)[C@@H]1O; experiment: purified protein, by the assay type; details: other: sugar + 90 μM DCPIP, 0.1M sodium phosphate buffer, pH 7.5, 40° C.
[9] = substrate: OC[C@@H](O)[C@@H](O[C@@H]1O[C@H](CO)[C@@H](O[C@@H]2O[C@H](CO)[C@@H](O[C@@H]3O[C@H](CO)[C@@H](O[C@@H]4O[C@H](CO)[C@@H](O)[C@H](O)[C@H]4O)[C@H](O)[C@H]3O)[C@H](O)[C@H]2O)[C@H](O)[C@H]1O)[C@H](O)[C@@H](O)CO; experiment: Coupled cellobiose oxidase/DCPIP assay for cellulases; format: biochemical; details: other: CBH II; reduced cellodextrin substrate
Description: (§1) The ability of the cellobiose oxidase to oxidize cellodextrins by means of an electron acceptor was utilized in an assay for cellulases. […] With this assay the kinetic constants for reduced cellodextrins of 5 different cellulases have been determined (table 2). […] The enzymes show very different substrate specificity, some of them requiring quite long substrates making it impossible to use the umbelliferyl cellobiosides and lactosides available for steady state kinetic. […] The inhibition constants were determined for two cellulases using the developed assay.

[10] = substrate: OC[C@@H](O)[C@@H](O[C@@H]1O[C@H](CO)[C@@H](O[C@@H]2O[C@H](CO)[C@@H](O[C@@H]3O[C@H](CO)[C@@H](O)[C@H](O)[C@H]3O)[C@H](O)[C@H]2O)[C@H](O)[C@H]1O)[C@H](O)[C@@H](O)CO; experiment: as above; format: biochemical; details: other: CBH II; reduced cellodextrin substrate
Description: as §1

[11] = substrate: OC[C@@H](O)[C@@H](O[C@@H]1O[C@H](CO)[C@@H](O[C@@H]2O[C@H](CO)[C@@H](O[C@@H]3O[C@H](CO)[C@@H](O[C@@H]4O[C@H](CO)[C@@H](O[C@@H]5O[C@H](CO)[C@@H](O)[C@H](O)[C@H]5O)[C@H](O)[C@H]4O)[C@H](O)[C@H]3O)[C@H](O)[C@H]2O)[C@H](O)[C@H]1O)[C@H](O)[C@@H](O)CO; experiment: as above; format: biochemical; details: other: CBH II; reduced cellodextrin substrate
Description: as §1

B1: Humicola insolens cellobiose oxidase (CBO, 92 kDa, pI 4.0) (Mycothermus thermophilus) (protein)
chain: QATGDAYTDSETGIKFQTWSPDPQFTFGLALPPDALEKDATEYIGLLRCTRADPSDPGYCGLSHGQVGQMTQSLLLVAWAYENQVYTSFRYATGYTLPGLYTGNAKLTQLSVNITDTSFELIYRCENCFSWEHEGSTGSSSTSQGYLVLGRASARRGVVGPTCPDTATFGFHDNGFGQWGVGLENAVSEQYSEWASLPGLTVETTCEGSGPGEAQCVPAPEETYDYIVVGAGAGGIPVADKLSEAGHKVLLIEKGPPSTGRWQGTMKPEWLEGTDLTRFDVPGLCNQIWVDSAGIACTDTDQMAGCVLGGGTAVNAGLWWKPIDLDWDENFPEGWHSQDLAAATERVFERIPGTWHPSMDGKLYRDEGYKVLSSGLAESGWKEVVANEVPNEKNRTFAHTHFMFAGGERNGPLATYLVSADARENFSLWTNTAVRRAVRTGGKVTGVELECLTDGGYSGIVKLNEGGGVIFSAGAFGSAKLLFRSGIGPEDQLRVVASSKDGEDFIDEKDWIKLPVGYNLIDHLNTDLILTHPDVVFYDFYEAWTTPIEADKQLYLEQRSGILAQAAPNIGPMMWEQVTPSDGITRQFQWTARVEGDSRFTNSSHAMTLSQYLGRGVVSRGRATITQGLVTTVAEHPYLHNAGDKEAVIQGIKNLIESLNVIPNITWVLPPPGSTVEEYVDSLLVSASARRSNHWMGTAKLGTDDGRYGGTSVVDLDTKVYGTDNLFVVDASIFPGMSTGNPSAMIVIAAEQAAERILKLRK
- Km [1]: 18 µM
- kcat [1]: 1.85 s⁻¹
- Km [2]: 21 µM
- Km [3]: 51 µM
- kcat [3]: 10 s⁻¹
- Km [4]: 132 µM
- Km [5]: 26 µM
- kcat [5]: 12 s⁻¹
- Km [6]: 11,000 μM
- kcat [6]: 0.83 s⁻¹
- Km [7]: 11 µM
- kcat [7]: 10 s⁻¹
- Km [8]: 19 µM

B2: CBH II (cellulase) (Mycothermus thermophilus) (protein)
chain: APVVEERQNCAPTWGQCGGIGFNGPTCCQSGSTCVKQNDWYSQCLPGSQVTTTSTTSTSSSSTTSRATSTTRTGGVTSITTAPTRTVTIPGGATTTASYNGNPFEGVQLWANNYYRSEVHTLAIPQITDPALRAAASAVAEVPSFQWLDRNVTVDTLLVETLSEIRAANQAGANPPYAAQIVVYDLPDRDCAAAASNGEWAIANNGANNYKGYINRIREILISFSDVRTILVIEPDSLANMVTNMNVAKCSGAASTYRELTIYALKQLDLPHVAMYMDAGHAGWLGWPANIQPAAELFAKIYEDAGKPRAVRGLATNVANYNAWSISSPPPYTSPNPNYDEKHYIEAFRPLLEARGFPAQFIVDQGRSGKQPTGQKEWGHWCNAIGTGFGMRPTANTGHQYVDAFVWVKPGGECDGTSDTTAARYDYHCGLEDALKPAPEAGQWFQAYFEQLLRNANPPF
- Km [9]: 3 µM
- Km [10]: 490 µM
- Km [11]: 4.7 µM
